Data: patent publication US20230407373A1 (priority 2020, published 2023)

Tests used:
HCoV-OC43 gRNA and sgRNA = type: binding; settings: for target (unweighted spectral count): OC43 Probe II, 24 hpi (type n_24_v), infected cells; for target (unweighted spectral count) / target (unweighted spectral count, OC43 Probe II capture): tested against no-probe control; for target (unweighted spectral count, OC43 Probe II capture): type n_36_v, FDR<10%; for target (unweighted spectral count, OC43 Probe II) / background (unweighted spectral count, no-probe control): type n_48_v, 48 hpi; for target (unweighted spectral count, OC43 Probe II): OC43 Probe II capture on infected cells; for background (unweighted spectral count, no-probe control): no-probe control on infected cells
[1] = tested on: SARS-CoV-2 gRNA and sgRNAs; type: binding; settings: for background (unweighted spectral count in control): no-probe control pull-down, used as background for Probe II; for target (unweighted spectral count in RNP capture): Probe II capture, LC-MS/MS LFQ

| Molecule | target (unweighted spectral count) (HCoV-OC43 gRNA and sgRNA) | background (unweighted spectral count in control) [1] | target (unweighted spectral count, OC43 Probe II capture) (HCoV-OC43 gRNA and sgRNA; 36 hpi) | target (unweighted spectral count, OC43 Probe II) (HCoV-OC43 gRNA and sgRNA) | background (unweighted spectral count, no-probe control) (HCoV-OC43 gRNA and sgRNA) | target (spectral count) (HCoV-OC43 gRNA and sgRNA; type s_36_m, HCoV-OC43-infected HCT-8 cells, 36 hpi, Probe II) | background (spectral count) (HCoV-OC43 gRNA and sgRNA; type s_36_m, uninfected-probe control, 36 hpi, Probe II) | target (unweighted spectral count in RNP capture) [1] |
| --- | --- | --- | --- | --- | --- | --- | --- | --- |
| PCBP2 (protein, UniProt Q15366 1-365, looked up) Poly(rC)-binding protein 2: MDTGVIEGGLNVTLTIRLLMHGKEVGSIIGKKGESVKKMREESGARINISEGNCPERIITLAGPTNAIFKAFAMIIDKLEEDISSSMTNSTAASRPPVTLRLVVPASQCGSLIGKGGCKIKEIRESTGAQVQVAGDMLPNSTERAITIAGIPQSIIECVKQICVVMLETLSQSPPKGVTIPYRPKPSSSPVIFAGGQDRYSTGSDSASFPHTTPSMCLNPDLEGPPLEAYTIQGQYAIPQPDLTKLHQLAMQQSHFPMTHGNTGFSGIESSSPEVKGYWGLDASAQTTSHELTIPNDLIGCIIGRQGAKINEIRQMSGAQIKIANPVEGSTDRQVTITGSAASISLAQYLINVRLSSETGGMGSS | 10 | 1 |  |  |  |  |  |  |
| ZC3H7A: host protein, UniProt Q8IWRD (protein, UniProt Q8IWR0 1-971, looked up) Zinc finger CCCH …: MSNVSEERRKRQQNIKEGLQFIQSPLSYPGTQEQYAVYLRALVRNLFNEGNDVYREHDWNNSISQYTEALNIADYAKSEEILIPKEIIEKLYINRIACYSNMGFHDKVLEDCNIVLSLNASNCKALYRKSKALSDLGRYKKAYDAVAKCSLAVPQDEHVIKLTQELAQKLGFKIRKAYVRAELSLKSVPGDGATKALNHSVEDIEPDLLTPRQEAVPVVSLPAPSFSHEVGSELASVPVMPLTSILPLQVEESALPSAVLANGGKMPFTMPEAFLDDGDMVLGDELDDLLDSAPETNETVMPSALVRGPLQTASVSPSMPFSASLLGTLPIGARYAPPPSFSEFYPPLTSSLEDFCSSLNSFSMSESKRDLSTSTSREGTPLNNSNSSLLLMNGPGSLFASENFLGISSQPRNDFGNFFGSAVTKPSSSVTPRHPLEGTHELRQACQICFVKSGPKLMDFTYHANIDHKCKKDILIGRIKNVEDKSWKKIRPRPTKTNYEGPYYICKDVAAEEECRYSGHCTFAYCQEEIDVWTLERKGAFSREAFFGGNGKINLTVFKLLQEHLGEFIFLCEKCFDHKPRMISKRNKDNSTACSHPVTKHEFEDNKCLVHILRETTVKYSKIRSFHGQCQLDLCRHEVRYGCLREDECFYAHSLVELKVWIMQNETGISHDAIAQESKRYWQNLEANVPGAQVLGNQIMPGFLNMKIKFVCAQCLRNGQVIEPDKNRKYCSAKARHSWTKDRRAMRVMSIERKKWMNIRPLPTKKQMPLQFDLCNHIASGKKCQYVGNCSFAHSPEEREVWTYMKENGIQDMEQFYELWLKSQKNEKSEDIASQSNKENGKQIHMPTDYAEVTVDFHCWMCGKNCNSEKQWQGHISSEKHKEKVFHTEDDQYCWQHRFPTGYFSICDRYMNGTCPEGNSCKFAHGNAELHEWEERRDALKMKLNKARKDHLIGPNDNDFGKYSFLFKDLN | 8 | 1 | 9 | 9 | 1 | 9 | 1 | 14 |
| ATXN2 (protein, UniProt Q99700 1-1313, looked up) Ataxin-2: MRSAAAAPRSPAVATESRRFAAARWPGWRSLQRPARRSGRGGGGAAPGPYPSAAPPPPGPGPPPSRQSSPPSASDCFGSNGNGGGAFRPGSRRLLGLGGPPRPFVVLLLPLASPGAPPAAPTRASPLGARASPPRSGVSLARPAPGCPRPACEPVYGPLTMSLKPQQQQQQQQQQQQQQQQQQQQQQQPPPAAANVRKPGGSGLLASPAAAPSPSSSSVSSSSATAPSSVVAATSGGGRPGLGRGRNSNKGLPQSTISFDGIYANMRMVHILTSVVGSKCEVQVKNGGIYEGVFKTYSPKCDLVLDAAHEKSTESSSGPKREEIMESILFKCSDFVVVQFKDMDSSYAKRDAFTDSAISAKVNGEHKEKDLEPWDAGELTANEELEALENDVSNGWDPNDMFRYNEENYGVVSTYDSSLSSYTVPLERDNSEEFLKREARANQLAEEIESSAQYKARVALENDDRSEEEKYTAVQRNSSEREGHSINTRENKYIPPGQRNREVISWGSGRQNSPRMGQPGSGSMPSRSTSHTSDFNPNSGSDQRVVNGGVPWPSPCPSPSSRPPSRYQSGPNSLPPRAATPTRPPSRPPSRPSRPPSHPSAHGSPAPVSTMPKRMSSEGPPRMSPKAQRHPRNHRVSAGRGSISSGLEFVSHNPPSEAATPPVARTSPSGGTWSSVVSGVPRLSPKTHRPRSPRQNSIGNTPSGPVLASPQAGIIPTEAVAMPIPAASPTPASPASNRAVTPSSEAKDSRLQDQRQNSPAGNKENIKPNETSPSFSKAENKGISPVVSEHRKQIDDLKKFKNDFRLQPSSTSESMDQLLNKNREGEKSRDLIKDKIEPSAKDSFIENSSSNCTSGSSKPNSPSISPSILSNTEHKRGPEVTSQGVQTSSPACKQEKDDKEEKKDAAEQVRKSTLNPNAKEFNPRSFSQPKPSTTPTSPRPQAQPSPSMVGHQQPTPVYTQPVCFAPNMMYPVPVSPGVQPLYPIPMTPMPVNQAKTYRAVPNMPQQRQDQHHQSAMMHPASAAGPPIAATPPAYSTQYVAYSPQQFPNQPLVQHVPHYQSQHPHVYSPVIQGNARMMAPPTHAQPGLVSSSATQYGAHEQTHAMYACPKLPYNKETSPSFYFAISTGSLAQQYAHPNATLHPHTPHPQPSATPTGQQQSQHGGSHPAPSPVQHHQHQAAQALHLASPQQQSAIYHAGLAPTPPSMTPASNTQSPQNSFPAAQQTVFTIHPSHVQPAYTNPPHMAHVPQAHVQSGMVPSHPTAHAPMMLMTTQPPGGPQAALAQSALQPIPVSTTAHFPYMTHPSVQAHHQQQL |  | 1 | 4 | 6 | 1 |  |  | 22 |
| RBMS2 (protein, UniProt Q15434 1-407, looked up) RNA-binding motif, …: MLLSVTSRPGISTFGYNRNNKKPYVSLAQQMAPPSPSNSTPNSSSGSNGNDQLSKTNLYIRGLQPGTTDQDLVKLCQPYGKIVSTKAILDKTTNKCKGYGFVDFDSPSAAQKAVTALKASGVQAQMAKQQEQDPTNLYISNLPLSMDEQELEGMLKPFGQVISTRILRDTSGTSRGVGFARMESTEKCEAIITHFNGKYIKTPPGVPAPSDPLLCKFADGGPKKRQNQGKFVQNGRAWPRNADMGVMALTYDPTTALQNGFYPAPYNITPNRMLAQSALSPYLSSPVSSYQRVTQTSPLQVPNPSWMHHHSYLMQPSGSVLTPGMDHPISLQPASMMGPLTQQLGHLSLSSTGTYMPTAAAMQGAYISQYTPVPSSSVSVEESSGQQNQVAVDAPSEHGVYSFQFNK |  | 1 | 4 |  |  |  |  | 14 |
| TIA1 (protein, UniProt P31483 1-386, looked up) Cytotoxic granule associated …: MEDEMPKTLYVGNLSRDVTEALILQLFSQIGPCKNCKMIMDTAGNDPYCFVEFHEHRHAAAALAAMNGRKIMGKEVKVNWATTPSSQKKDTSSSTVVSTQRSQDHFHVFVGDLSPEITTEDIKAAFAPFGRISDARVVKDMATGKSKGYGFVSFFNKWDAENAIQQMGGQWLGGRQIRTNWATRKPPAPKSTYESNTKQLSYDEVVNQSSPSNCTVYCGGVTSGLTEQLMRQTFSPFGQIMEIRVFPDKGYSFVRFNSHESAAHAIVSVNGTTIEGHVVKCYWGKETLDMINPVQQQNQIGYPQPYGQWGQWYGNAQQIGQYMPNGWQVPAYGMYGQAWNQQGFNQTQSSAPWMGPNYGVQPPQGQNGSMLPNQPSGYRVAGYETQ |  | 1 | 6 |  |  |  |  | 11 |
